Experimental findings from patent publication US8728478 are described below.

Values joined by “and” are separate entries in the source; they are usually repeats but may differ in a detail not shown here. Equal values may be shown once.

Assay [1] deals with Escherichia coli heat-stable enterotoxin A (STa), purified from a bovine ETEC K99+ isolate (Escherichia coli (ETEC isolated from a diarrheic neonatal calf)). The assay is described as follows: indirect ELISA on plate-bound STa, serum dilution 10^-5, pre-immunization serum. On the technique in general: In an ELISA, binding on a coated surface is turned into a signal by an enzyme label.

The target is the same in assay [2]. The assay is described as follows: indirect ELISA on plate-bound STa, serum dilution 10^-3, pre-immunization serum.
Assay [3] has the same target. The assay is described as follows: STa-binding indirect ELISA, end titer.
Assay [4] shares this target. As to the kind of experiment: indirect ELISA on plate-bound STa, serum dilution 10^-6, pre-immunization serum.
Assay [5] shares this target. As to the kind of experiment: indirect ELISA on plate-bound STa, serum dilution 10^-4, pre-immunization serum.
Assay [6] shares this target.
Assay [7] has the same target. The assay is described as follows: avidity ELISA on plate-bound STa, 5 M ammonium thiocyanate, Baseline.

In the case of “baseline (pre-immunization) rabbit serum (antibody)”, the mean OD (405 nm) turned out to be 0.033 OD in assay [1], 0.864 OD in assay [2], 0.039 OD in assay [4] and 0.232 OD in assay [5]. In addition, the ELISA Titer (reciprocal serum dilution) in assay [3] was found to be 0. Also, the Avidity Index (%) in assay [6] is 4.7% and 3% and 0%. The OD at 405 nm with 5 M ammonium thiocyanate in assay [7] was 0.017 OD and 0.043 OD and 0.04 OD.
